Several values for one entry are separate records, joined by “and”; a condition that tells them apart may be missing. Equal entries are not always repeated.

The text below walks through data of article PMC11602165, “A bacterial transcription activator dedicated to the expression of the enzyme catalyzing the first committed step in fatty acid biosynthesis” (Nucleic Acids Research, 2024).

Data set [1] deals with AccR (LysR-type transcriptional regulator, SO_0839) (Shewanella oneidensis, UniProt Q8EIK0). The experiment in a line: ITC in HEPES buffer (Kd […]); also MST ([…]); no binding seen by ITC in Tris buffer.
Data set [2] deals with the molecule itself. In words: crystal structure; AccR EBD (residues 86-303), apo form, hanging-drop vapor diffusion, 27.5% PEG 4000, 100 mM HEPES pH 7.0, 20°C; space group C2, one dimer in the asymmetric unit.
Data set [3] concerns the molecule itself. The experiment in a line: SEC; His-tagged recombinant AccR purified from E. coli run on a Superdex 200HR 10/30 column (FPLC); two peaks with estimated molecular weights of ~67 and ~140 kDa.

`CC(=O)SCCNC(=O)CCNC(=O)[C@H](O)C(C)(C)COP(=O)(O)OP(=O)(O)OC[C@H]1O[C@@H](n2cnc3c(N)ncnc32)[C@H](O)[C@@H]1OP(=O)(O)O` [acetyl-CoA] had a Kd in data set [1] of 8.4 ± 1.3 µM.

B1: AccR effector-binding domain (EBD, residues 86-303) (domain or fragment, Shewanella oneidensis, UniProt Q8EIK0 86-303, looked up)
chain: THDDVSGSLRIAIPVSFSQELIANLCSGFMRLYPNVELDVQFTDNDIGLVGEGYDIAIKYGPLQSSDLVARLLFERQPILVASPGYLKTRGTPATPKELSDHSGILLGTSRSAPIWPLGKGTRKTMVSFQRKVRVNSPIMVKQLALDDFGIAMLSNSACKTELANGQLVPILQEWPMEPFKVYGVYSSRRQLATNISAFLDFFVKRFSSQESLQSLMG
notes: the model holds residues 89-302 (subunit A) and 90-300 (subunit B); The methods describe expression in M9 medium with selenomethionine, but also say that diffraction data were collected with native protein crystals; also called AccR EBD; regulatory domain; source: E. coli BL21(DE3), pET-28a, purified (Ni-NTA, size-exclusion chromatography)
On to B1, for which the binding result in data set [2] is “binds”.

B2: AccR (SO_0839), LysR-type transcriptional regulator, His6-tagged recombinant (natural protein, Shewanella oneidensis, UniProt Q8EIK0 1-303, looked up)
chain: MPDLNGMMLFAAVVRAKGFSQAARETGHPKSTISRKIAQLEEELGVRLLQRDTRNLSLTQVGALFYQHCDSIRNEVEAAKAVIESTHDDVSGSLRIAIPVSFSQELIANLCSGFMRLYPNVELDVQFTDNDIGLVGEGYDIAIKYGPLQSSDLVARLLFERQPILVASPGYLKTRGTPATPKELSDHSGILLGTSRSAPIWPLGKGTRKTMVSFQRKVRVNSPIMVKQLALDDFGIAMLSNSACKTELANGQLVPILQEWPMEPFKVYGVYSSRRQLATNISAFLDFFVKRFSSQESLQSLMG
notes: AccR (SO_0839), LTTR of 303 amino acids, Shewanella oneidensis; full-length; calculated molecular weight of the recombinant protein 35.6 kDa; The methods describe growth of the BL21(DE3) cells in M9 medium supplemented with selenomethionine; also called ACCase regulator; His-tagged AccR; source: E. coli BL21(DE3), pET-28a, purified (Ni-NTA, size-exclusion chromatography); not shown: His6, …
Regarding B2, the “stoichiometry N” value in data set [3] is 2 and 4.
